Measurements reported in PMC10397247.

T1: 4H687-bA
T1 chain: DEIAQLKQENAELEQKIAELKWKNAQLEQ

T2: 4H717-bA
T2 chain: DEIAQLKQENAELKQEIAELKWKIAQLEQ

T3: 4H72-bA
T3 chain: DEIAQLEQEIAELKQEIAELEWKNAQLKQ

T4: 4H754-bA
T4 chain: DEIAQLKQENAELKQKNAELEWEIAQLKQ

T5: 4H797-bA
T5 chain: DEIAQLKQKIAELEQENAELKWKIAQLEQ

T6: 4H883-bA
T6 chain: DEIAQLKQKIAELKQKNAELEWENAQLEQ

T7: 4H908-bA
T7 chain: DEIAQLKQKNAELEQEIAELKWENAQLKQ

T8: 4H918-bA
T8 chain: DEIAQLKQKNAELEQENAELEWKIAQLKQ

T9: 4H953-bA
T9 chain: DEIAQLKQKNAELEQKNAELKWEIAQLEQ

T10: 4H967-bA
T10 chain: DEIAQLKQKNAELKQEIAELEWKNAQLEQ

T11: O13-bH
T11 chain: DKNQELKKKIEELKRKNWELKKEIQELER

T12: 4H2442-bA
T12 chain: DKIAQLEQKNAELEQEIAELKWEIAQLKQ

T13: 4H2576-bA
T13 chain: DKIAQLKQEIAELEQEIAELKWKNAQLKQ

T14: 4H2618-bA
T14 chain: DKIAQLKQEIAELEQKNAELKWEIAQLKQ

T15: 4H2667-bA
T15 chain: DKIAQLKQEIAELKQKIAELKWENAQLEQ

T16: 4H2729-bA
T16 chain: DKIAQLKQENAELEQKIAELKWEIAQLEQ

T17: 4H3112-bA
T17 chain: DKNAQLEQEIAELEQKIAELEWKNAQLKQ

T18: 4H3185-bA
T18 chain: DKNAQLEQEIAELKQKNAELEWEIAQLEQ

T19: 4H331-bA
T19 chain: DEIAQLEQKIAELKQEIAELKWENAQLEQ

T20: 4H3354-bA
T20 chain: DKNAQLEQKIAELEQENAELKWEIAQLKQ

T21: 4H338-bA
T21 chain: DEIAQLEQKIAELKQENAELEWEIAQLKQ

T22: 4H3427-bA
T22 chain: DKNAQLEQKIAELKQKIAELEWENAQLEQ

T23: 4H3497-bA
T23 chain: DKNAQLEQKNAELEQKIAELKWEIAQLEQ

T24: 4H3782-bA
T24 chain: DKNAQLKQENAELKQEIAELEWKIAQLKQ

T25: 4H3855-bA
T25 chain: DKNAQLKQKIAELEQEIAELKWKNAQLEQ

T26: 4H4001-bA
T26 chain: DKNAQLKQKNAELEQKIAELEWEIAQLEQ

T27: 4H454-bA
T27 chain: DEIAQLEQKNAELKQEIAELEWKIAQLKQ

T28: 4H568-bA
T28 chain: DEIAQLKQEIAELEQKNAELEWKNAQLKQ

T29: 4H607-bA
T29 chain: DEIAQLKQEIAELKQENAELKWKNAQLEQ

T30: 4H1845-bA
T30 chain: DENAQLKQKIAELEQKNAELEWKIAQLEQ

T31: 4H2610-bA
T31 chain: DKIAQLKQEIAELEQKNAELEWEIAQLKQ

T32: 4H2697-bA
T32 chain: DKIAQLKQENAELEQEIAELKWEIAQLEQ

T33: 4H3010-bN
T33 chain: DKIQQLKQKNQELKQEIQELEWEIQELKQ

T34: 4H3189-bA
T34 chain: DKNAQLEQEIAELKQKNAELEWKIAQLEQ

T35: 4H3606-bA
T35 chain: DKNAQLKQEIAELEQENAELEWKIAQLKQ

T36: 4H370-bA
T36 chain: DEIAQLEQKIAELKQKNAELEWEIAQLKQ

T37: 4H3843-bA
T37 chain: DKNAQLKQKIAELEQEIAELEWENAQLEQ

T38: 4H462-bA
T38 chain: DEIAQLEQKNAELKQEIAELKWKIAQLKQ

T39: 4H607-bN
T39 chain: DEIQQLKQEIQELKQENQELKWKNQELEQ


Key:
Assay in all cases: two-hybrid library CCNG1;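 note: natural log of median RNA to DNA barcode read ratio; higher means stronger binding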
4H687-bA = biological target: T1, 4H687-bA
4H717-bA = biological target: T2, 4H717-bA
4H72-bA = biological target: T3, 4H72-bA
4H754-bA = biological target: T4, 4H754-bA
4H797-bA = biological target: T5, 4H797-bA
4H883-bA = biological target: T6, 4H883-bA
4H908-bA = biological target: T7, 4H908-bA
4H918-bA = biological target: T8, 4H918-bA
4H953-bA = biological target: T9, 4H953-bA
4H967-bA = biological target: T10, 4H967-bA
O13-bH = biological target: T11, O13-bH
4H2442-bA = biological target: T12, 4H2442-bA
4H2576-bA = biological target: T13, 4H2576-bA
4H2618-bA = biological target: T14, 4H2618-bA
4H2667-bA = biological target: T15, 4H2667-bA
4H2729-bA = biological target: T16, 4H2729-bA
4H3112-bA = biological target: T17, 4H3112-bA
4H3185-bA = biological target: T18, 4H3185-bA
4H331-bA = biological target: T19, 4H331-bA
4H3354-bA = biological target: T20, 4H3354-bA
4H338-bA = biological target: T21, 4H338-bA
4H3427-bA = biological target: T22, 4H3427-bA
4H3497-bA = biological target: T23, 4H3497-bA
4H3782-bA = biological target: T24, 4H3782-bA
4H3855-bA = biological target: T25, 4H3855-bA
4H4001-bA = biological target: T26, 4H4001-bA
4H454-bA = biological target: T27, 4H454-bA
4H568-bA = biological target: T28, 4H568-bA
4H607-bA = biological target: T29, 4H607-bA
4H1845-bA = biological target: T30, 4H1845-bA
4H2610-bA = biological target: T31, 4H2610-bA
4H2697-bA = biological target: T32, 4H2697-bA
4H3010-bN = biological target: T33, 4H3010-bN
4H3189-bA = biological target: T34, 4H3189-bA
4H3606-bA = biological target: T35, 4H3606-bA
4H370-bA = biological target: T36, 4H370-bA
4H3843-bA = biological target: T37, 4H3843-bA
4H462-bA = biological target: T38, 4H462-bA
4H607-bN = biological target: T39, 4H607-bN

Binder	interaction score (4H687-bA)	interaction score (4H717-bA)	interaction score (4H72-bA)	interaction score (4H754-bA)	interaction score (4H797-bA)	interaction score (4H883-bA)	interaction score (4H908-bA)	interaction score (4H918-bA)	interaction score (4H953-bA)	interaction score (4H967-bA)	interaction score (4H2442-bA)	interaction score (4H2576-bA)	interaction score (4H2618-bA)	interaction score (4H2667-bA)	interaction score (4H2729-bA)	interaction score (4H3112-bA)	interaction score (4H3185-bA)	interaction score (4H331-bA)	interaction score (4H3354-bA)	interaction score (4H338-bA)	other results
DEIAQLKQENAELEQKIAELKWKNAQLEQ [4H687-bA]	-1.03	-1.32	-0.595	-0.491	-0.624	-1.57	-0.749	-0.947	-1.51	1.07	–	–	–	–	–	–	–	–	–	–	interaction score (O13-bH): 1.07
DKIAQLEQKNAELEQEIAELKWEIAQLKQ [4H2442-bA]	-0.225	-0.902	-1.46	0.0444	-1.24	-1.15	-0.745	-1.46	-1.68	-1.64	1.33	-0.202	0.238	-0.365	1.52	-0.0125	-0.212	-1.21	-0.829	-0.0859	interaction score (4H3427-bA): 0.0308; interaction score (4H3497-bA): 1.63; interaction score (4H3782-bA): -1.13; interaction score (4H3855-bA): -0.595; interaction score (4H4001-bA): 0.5; interaction score (4H454-bA): 0.831; interaction score (4H568-bA): -1.89; interaction score (4H607-bA): -1.4
DENAQLKQKIAELEQKNAELEWKIAQLEQ [4H1845-bA]	-0.612	-0.827	-0.517	-0.405	-0.424	-0.795	-1.42	-0.752	-1.23	-0.617	-0.649	0.69	-0.329	0.247	-0.636	-0.795	-0.124	-0.344	-0.823	-1.75	interaction score (4H1845-bA): 0.564; interaction score (4H2610-bA): -0.596; interaction score (4H2697-bA): -0.601; interaction score (4H3010-bN): 0.0715; interaction score (4H3189-bA): -0.547; interaction score (4H3427-bA): -0.783; interaction score (4H3606-bA): -1.46; interaction score (4H370-bA): -0.74; interaction score (4H3782-bA): -0.678; interaction score (4H3843-bA): -0.572; interaction score (4H3855-bA): -1.1; interaction score (4H4001-bA): -0.341; interaction score (4H454-bA): -0.0982; interaction score (4H462-bA): -0.986; interaction score (4H568-bA): -0.306; interaction score (4H607-bA): -1.7; interaction score (4H607-bN): -0.945
